# ± gives the uncertainty stated by the source.
# Assay: self-splicing fitness, log relative to wild type (ln ratio); higher = more splicing; Tetrahymena group I intron in knt gene, E. coli kanamycin selection, DiMSum; sequences stand for … in CUCUCU…GGAGGGAAAAGUUAUCAGGCAUGCACCUGGUAGCUAGUCUUUAAACCAAUAGAUUGCAUCGGUUUAAAAGGCAAGACCGUCAAAUUGCGGGAAAGGGGUCAACAGCCGUUCAGUACCAAGUCUCAGGGGAAACUUUGAGAUGGCCUUGCAAAGGGUAUGGUAAUAAGCUGACGGACAUGGUCCUAACCACGCAGCCAAGUCCUAAGUCAACAGAUCUUCUGUUGAUAUGGAUGCAGUUCACAGACUAAAUGUCGGUCGGGGAAGAUGUAUUCUUCUCAUAAGAUAUAGUCGGACCUCUCCUUAAUGGGAGCUAGCGGAUGAAGUGAUGCAACACUGGAGCCGCUGGGAACUAAUUUGUAUGCGAAAGUAUAUUGAUUAGUUUUGGAGUACUCGUGGUCG
# Method in brief: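 Fitness was computed with DiMSum as the error-weighted combination of replicate fold changes, kanamycin versus none, each normalised to wild type. The library randomised all eight intron nucleotides of the P1ex region, with the intron placed in the knt kanamycin-resistance gene on pET-22b(+) in E. coli BL21(DE3). Six replicate transformations were grown overnight at 37°C or 30°C on LB agar with or without 25 μg/mL kanamycin, plus 100 μg/mL carbenicillin, 50 μM IPTG and 0.2% rhamnose. Pooled colonies were amplicon-sequenced on an Illumina HiSeq 2500.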
sequence,measurement,setting,value
CGCGAGCAAUAUUACGCGGG,self-splicing fitness (ln),30 °C,-3.4 ± 0.17
same,self-splicing fitness (ln),37 °C,-3.6 ± 0.25
GGAUAGCAAUAUUACGGUUU,self-splicing fitness (ln),30 °C,-1.22 ± 0.093
same,self-splicing fitness (ln),37 °C,-0.329 ± 0.11
GAGUAGCAAUAUUACGCCAA,self-splicing fitness (ln),30 °C,-1.98 ± 0.43
same,self-splicing fitness (ln),37 °C,-1.66 ± 0.32
CGAAAGCAAUAUUACGCGUG,self-splicing fitness (ln),30 °C,-1.16 ± 0.068
same,self-splicing fitness (ln),37 °C,0.12 ± 0.079
UGUGAGCAAUAUUACGAGUA,self-splicing fitness (ln),30 °C,-2.16 ± 0.21
same,self-splicing fitness (ln),37 °C,-2.07 ± 0.29
UUCAAGCAAUAUUACGUCAA,self-splicing fitness (ln),30 °C,-0.772 ± 0.092
same,self-splicing fitness (ln),37 °C,-0.645 ± 0.1
ACUGAGCAAUAUUACGGUCA,self-splicing fitness (ln),30 °C,-3.09 ± 0.21
same,self-splicing fitness (ln),37 °C,-1.51 ± 0.15
GUUGAGCAAUAUUACGGACA,self-splicing fitness (ln),30 °C,-0.932 ± 0.47
same,self-splicing fitness (ln),37 °C,-1.32 ± 0.43
CAAAAGCAAUAUUACGAGGG,self-splicing fitness (ln),30 °C,-2.77 ± 0.14
same,self-splicing fitness (ln),37 °C,-2.53 ± 0.21
CCCAAGCAAUAUUACGGCAC,self-splicing fitness (ln),30 °C,-4.31 ± 0.36
same,self-splicing fitness (ln),37 °C,-2.5 ± 0.21
AGGGAGCAAUAUUACGGGUU,self-splicing fitness (ln),30 °C,-3.84 ± 0.25
same,self-splicing fitness (ln),37 °C,-3.17 ± 0.35
CACGAGCAAUAUUACGUCUA,self-splicing fitness (ln),30 °C,-1.3 ± 0.32
same,self-splicing fitness (ln),37 °C,-1.55 ± 0.27
UGUCAGCAAUAUUACGACAG,self-splicing fitness (ln),30 °C,-1.62 ± 0.16
same,self-splicing fitness (ln),37 °C,-0.615 ± 0.14
AAUAAGCAAUAUUACGUACA,self-splicing fitness (ln),30 °C,-0.815 ± 0.1
same,self-splicing fitness (ln),37 °C,-0.842 ± 0.11
ACCGAGCAAUAUUACGGGGC,self-splicing fitness (ln),30 °C,-3.64 ± 0.2
same,self-splicing fitness (ln),37 °C,-2.47 ± 0.2
UAAUAGCAAUAUUACGAUGC,self-splicing fitness (ln),30 °C,-3.45 ± 0.3
ACAAAGCAAUAUUACGCGGC,self-splicing fitness (ln),30 °C,-2.91 ± 0.13
same,self-splicing fitness (ln),37 °C,-3.04 ± 0.21
CGACAGCAAUAUUACGUUAG,self-splicing fitness (ln),30 °C,-2.51 ± 0.097
same,self-splicing fitness (ln),37 °C,-0.772 ± 0.095
ACUGAGCAAUAUUACGCAUU,self-splicing fitness (ln),30 °C,-2.71 ± 0.1
same,self-splicing fitness (ln),37 °C,-1.29 ± 0.11
GAGCAGCAAUAUUACGUGUC,self-splicing fitness (ln),30 °C,-2.9 ± 0.12
same,self-splicing fitness (ln),37 °C,-2.01 ± 0.12
GCACAGCAAUAUUACGCAUC,self-splicing fitness (ln),30 °C,-1.07 ± 0.083
same,self-splicing fitness (ln),37 °C,-0.51 ± 0.096
GUAGAGCAAUAUUACGCUGA,self-splicing fitness (ln),30 °C,-2.33 ± 0.11
same,self-splicing fitness (ln),37 °C,-1.15 ± 0.14
AAGUAGCAAUAUUACGGUCG,self-splicing fitness (ln),30 °C,-2.14 ± 0.13
same,self-splicing fitness (ln),37 °C,-1.03 ± 0.12
AAGUAGCAAUAUUACGUUGU,self-splicing fitness (ln),30 °C,-2.95 ± 0.1
same,self-splicing fitness (ln),37 °C,-2.43 ± 0.13
CAGAAGCAAUAUUACGUUUG,self-splicing fitness (ln),30 °C,-3.42 ± 0.19
same,self-splicing fitness (ln),37 °C,-2.54 ± 0.2
GUACAGCAAUAUUACGCAGG,self-splicing fitness (ln),30 °C,-3.44 ± 0.23
same,self-splicing fitness (ln),37 °C,-1.93 ± 0.19
CUACAGCAAUAUUACGAAUA,self-splicing fitness (ln),30 °C,-3.07 ± 0.41
same,self-splicing fitness (ln),37 °C,-2.21 ± 0.27
GAUUAGCAAUAUUACGAUGU,self-splicing fitness (ln),30 °C,-0.783 ± 0.074
same,self-splicing fitness (ln),37 °C,-0.611 ± 0.1
AGGUAGCAAUAUUACGAGGG,self-splicing fitness (ln),30 °C,-3.972 ± 0.031
same,self-splicing fitness (ln),37 °C,-3.2 ± 0.042
ACUCAGCAAUAUUACGUUUA,self-splicing fitness (ln),30 °C,-1.54 ± 0.078
same,self-splicing fitness (ln),37 °C,-0.51 ± 0.086
CCUCAGCAAUAUUACGUCUC,self-splicing fitness (ln),30 °C,-3.73 ± 0.24
UCUCAGCAAUAUUACGUGAG,self-splicing fitness (ln),30 °C,-1.2 ± 0.054
same,self-splicing fitness (ln),37 °C,-0.483 ± 0.072
UGGCAGCAAUAUUACGUCUA,self-splicing fitness (ln),30 °C,-0.425 ± 0.091
same,self-splicing fitness (ln),37 °C,0.66 ± 0.11
GGACAGCAAUAUUACGACCA,self-splicing fitness (ln),30 °C,-1.46 ± 0.13
same,self-splicing fitness (ln),37 °C,-0.645 ± 0.16
AACUAGCAAUAUUACGCCUA,self-splicing fitness (ln),30 °C,-0.593 ± 0.11
same,self-splicing fitness (ln),37 °C,-0.206 ± 0.11
UAGCAGCAAUAUUACGAUUG,self-splicing fitness (ln),30 °C,-0.536 ± 0.12
same,self-splicing fitness (ln),37 °C,-0.509 ± 0.14
GAUCAGCAAUAUUACGUUGG,self-splicing fitness (ln),30 °C,-3.67 ± 0.24
same,self-splicing fitness (ln),37 °C,-0.912 ± 0.12
UUUCAGCAAUAUUACGACAC,self-splicing fitness (ln),30 °C,-2.24 ± 0.16
same,self-splicing fitness (ln),37 °C,-2.97 ± 0.22
CUCAAGCAAUAUUACGAAGA,self-splicing fitness (ln),30 °C,-3.8 ± 0.25
same,self-splicing fitness (ln),37 °C,-2.55 ± 0.2
AGUUAGCAAUAUUACGCAUA,self-splicing fitness (ln),30 °C,-1.15 ± 0.19
same,self-splicing fitness (ln),37 °C,-0.764 ± 0.29
CUCCAGCAAUAUUACGUAUC,self-splicing fitness (ln),30 °C,-3.01 ± 0.16
same,self-splicing fitness (ln),37 °C,-2.73 ± 0.23
CGCUAGCAAUAUUACGUUGU,self-splicing fitness (ln),30 °C,-3.3 ± 0.2
same,self-splicing fitness (ln),37 °C,-1.59 ± 0.18

# — the supplement of paper PMC7877785
